Source: patent publication US20210380703A1

These binders were tested against human Fc (human) (assay: ELISA; negative control).

Binder | optical density [OD]
374_G07 (antibody, V domains shown) VH: EVQLLESGGGLVQPGGSLRLSCAASGFTFSSYSMNWVRQAPGKGLEWVSGINYNSGYKSYADSVKGRFTISRDNSKNTLYLQMNSLRAEDTAVYYCARSANWHDTALDYWGQGTLVTVSS VL: DIQMTQSPSSLSASVGDRVTITCRASQSIISYLNWYQQKPGKAPKLLIYAATSRASGVPSRFSGSGSGTDFTLTISSLQPEDFATYYCQQSYDSPLTFGGGTKVEIK | 0.214
374_H03 (antibody, V domains shown) VH: EVQLLESGGGLVQPGGSLRLSCAASGFTFSSYGMNWVRQAPGKGLEWVSGINYNSGYKSYADSVKGRFTISRDNSKNTLYLQMNSLRAEDTAVYYCARSANWHDTALDYWGQGTLVTVSS VL: DIQMTQSPSSLSASVGDRVTITCRASQSILSYVNWYQQKPGKAPKLVIYAATSRASGVPSRFSGSGSGTDFTLTISSLQPEDFATYYCQQSYDSPLTFGGGTKVEIK | 0.162
375_C06 (antibody, V domains shown) VH: EVQLLESGGGLVQPGGSLRLSCAASGFTFDDYGMHWVRQAPGKGLEWVASINYNSGYTSYADSVKGRFTISRDNSKNTLYLQMNSLRAEDTAVYYCARSANWHDTALDYWGQGTLVTVSS VL: DIQMTQSPSSLSASVGDRVTITCRASQSILTYVNWYQQKPGKAPKLVIYATTSRASGVPSRFSGSGSGTDFTLTISSLQPEDFATYYCQQSYDSPLTFGGGTKVEIK | 0.2
374_H04 (antibody, V domains shown) VH: EVQLLESGGGLVQPGGSLRLSCAASGFTFDSYSMNWVRQAPGKGLEWVSGINYNSGYTSYADSVKGRFTISRDNSKNTLYLQMNSLRAEDTAVYYCARSANWHDTALDYWGQGTLVTVSS VL: DIQMTQSPSSLSASVGDRVTITCRASQSILTYLNWYQQKPGKAPKLLIYAATSRASGVPSRFSGSGSGTDFTLTISSLQPEDFATYYCQQSYDNPLTFGGGTKVEIK | 0.167
375_D04 (antibody, V domains shown) VH: EVQLLESGGGLVQPGGSLRLSCAASGFTFDDSSMHWVRQAPGKGLEWVSNINYNGGYTGYADSVKGRFTISRDNSKNTLYLQMNSLRAEDTAVYYCAKSANWHDTALDYWGQGTLVTVSS VL: DIQMTQSPSSLSASVGDRVTITCRASQSILSYVNWYQQKPGKAPKLVIYAATSRASGVPSRFSGSGSGTDFTLTISSLQPEDFATYYCQQSYELPLTFGGGTKVEIK | 0.182
374_H06 (antibody, V domains shown) VH: EVQLLESGGGLVQPGGSLRLSCAASGFTFSSYGMNWVRQAPGKGLEWVSNINYNGGYTGYADSVKGRFTISRDNSKNTLYLQMNSLRAEDTAVYYCARSANWHDTALDYWGQGTLVTVSS VL: DIQMTQSPSSLSASVGDRVTITCRASQSIVSYVNWYQQKPGKAPKLVIYAATSRASGVPSRFSGSGSGTDFTLTISSLQPEDFATYYCQQSYNLPLTFGGGTKVEIK | 0.166
374_H07 (antibody, V domains shown) VH: EVQLLESGGGLVQPGGSLRLSCAASGFTFDSYGMNWVRQAPGKGLEWVANINYNGGYTGYADSVKGRFTISRDNSKNTLYLQMNSLRAEDTAVYYCARSANWHDTALDYWGQGTLVTVSS VL: DIQMTQSPSSLSASVGDRVTITCRASQSILTYLNWYQQKPGKAPKLLIYAATSRASGVPSRFSGSGSGTDFTLTISSLQPEDFATYYCQQSYETPLTFGGGTKVEIK | 0.163
375_A05 (antibody, V domains shown) VH: EVQLLESGGGLVQPGGSLRLSCAASGFTFSSYGMNWVRQAPGKGLEWVANINYNGGYKGYADSVKGRFTISRDNSKNTLYLQMNSLRAEDTAVYYCARSANWHDTALDYWGQGTLVTVSS VL: DIQMTQSPSSLSASVGDRVTITCRASQSILSYLNWYQQKPGKAPKLLIYAATSRASGVPSRFSGSGSGTDFTLTISSLQPEDFATYYCQQSYDLPLTFGGGTKVEIK | 0.202
375_D05 (antibody, V domains shown) VH: EVQLLESGGGLVQPGGSLRLSCAASGFTFSSYSMNWVRQAPGKGLEWVASINYNSGYTSYADSVKGRFTISRDNSKNTLYLQMNSLRAEDTAVYYCARSANWHDTHLDYWGQGTLVTVSS VL: DIQMTQSPSSLSASVGDRVTITCRASQSIVSYLNWYQQKPGKAPKLLIYAATSLHSGVPSRFSGSGSGTDFTLTISSLQPEDFATYYCQQSYDTPLTFGGGTKVEIK | 0.202
374_H09 (antibody, V domains shown) VH: EVQLLESGGGLVQPGGSLRLSCAASGFTFSSYSMNWVRQAPGKGLEWVANINYNSGYKSYADSVKGRFTISRDNSKNTLYLQMNSLRAEDTAVYYCARSANWHDTALDYWGQGTLVTVSS VL: DIQMTQSPSSLSASVGDRVTITCRASQSILSYLNWYQQKPGKAPKLVIYAVTSLASGVPSRFSGSGSGTDFTLTISSLQPEDFATYYCQQSYDLPLTFGGGTKVEIK | 0.158

Next, values leading:

optical density [OD] | Binder
0.22 | 376_A12 (antibody, V domains shown) VH: EVQLLESGGGLVQPGGSLRLSCAASGFTFSSYSMNWVRQAPGKGLEWVANINYNSGYKGYADSVKGRFTISRDNSKNTLYLQMNSLRAEDTAVYYCARSANWHDTALDYWGQGTLVTVSS VL: DIQMTQSPSSLSASVGDRVTITCRASQSILSYVNWYQQKPGKAPKLVIYAATSRASGVPSRFSGSGSGTDFTLTISSLQPEDFATYYCQQSYDTPLTFGGGTKVEIK
0.158 | 375_E07 (antibody, V domains shown) VH: EVQLLESGGGLVQPGGSLRLSCAASGFTFSDYSMNWVRQAPGKGLEWVAGINYNSGYKGYADSVKGRFTISRDNSKNTLYLQMNSLRAEDTAVYYCARSANWHDTALDYWGQGTLVTVSS VL: DIQMTQSPSSLSASVGDRVTITCRASQSIVTYLNWYQQKPGKAPKLLIYVVTNRESGVPSRFSGSGSGTDFTLTISSLQPEDFATYYCQQSYETPLTFGGGTKVEIK
0.227 | 376_B09 (antibody, V domains shown) VH: EVQLLESGGGLVQPGGSLRLSCAASGFTFDSYSMNWVRQAPGKGLEWVANINYNSGYKGYADSVKGRFTISRDNSKNTLYLQMNSLRAEDTAVYYCARSANWHDTALDYWGQGTLVTVSS VL: DIQMTQSPSSLSASVGDRVTITCRASQSILTYVNWYQQKPGKAPKLVIYAATSRASGVPSRFSGSGSGTDFTLTISSLQPEDFATYYCQQSYDLPLTFGGGTKVEIK
0.188 | 375_H12 (antibody, V domains shown) VH: EVQLLESGGGLVQPGGSLRLSCAASGFTFSSYGMNWVRQAPGKGLEWVAGINYNGGYKGYADSVKGRFTISRDNSKNTLYLQMNSLRAEDTAVYYCARSANWHDTALDYWGQGTLVTVSS VL: DIQMTQSPSSLSASVGDRVTITCRASQSILTYLNWYQQKPGKAPKLLIYYVTNRQSGVPSRFSGSGSGTDFTLTISSLQPEDFATYYCQQSYSIPLTFGGGTKVEIK
0.176 | 375_D07 (antibody, V domains shown) VH: EVQLLESGGGLVQPGGSLRLSCAASGFTFSSYGMNWVRQAPGKGLEWVANINYNSGYTGYADSVKGRFTISRDNSKNTLYLQMNSLRAEDTAVYYCARSANWHDTALDYWGQGTLVTVSS VL: DIQMTQSPSSLSASVGDRVTITCRASQSIITYLNWYQQKPGKAPKLLIYAATSRASGVPSRFSGSGSGTDFTLTISSLQPEDFATYYCQQSYDTPLTFGGGTKVEIK
0.279 | 376_A10 (antibody, V domains shown) VH: EVQLLESGGGLVQPGGSLRLSCAASGFTFSDYGMNWVRQAPGKGLEWVSNINYNSGYKGYADSVKGRFTISRDNSKNTLYLQMNSLRAEDTAVYYCARSANWHDTALDYWGQGTLVTVSS VL: DIQMTQSPSSLSASVGDRVTITCRASQSILSYLNWYQQKPGKAPKLLIYAATSRASGVPSRFSGSGSGTDFTLTISSLQPEDFATYYCQQSYESPLTFGGGTKVEIK
0.293 | 376_B04 (antibody, V domains shown) VH: EVQLLESGGGLVQPGGSLRLSCAASGFTFDSYGMHWVRQAPGKGLEWVASINYNGGYTGYADSVKGRFTISRDNSKNTLYLQMNSLRAEDTAVYYCARSANWHDTALDYWGQGTLVTVSS VL: DIQMTQSPSSLSASVGDRVTITCRASQSIVSYVNWYQQKPGKAPKLVIYAATSRASGVPSRFSGSGSGTDFTLTISSLQPEDFATYYCQQSYDTPLTFGGGTKVEIK
0.261 | 376_B11 (antibody, V domains shown) VH: EVQLLESGGGLVQPGGSLRLSCAASGFTFSSYSMNWVRQAPGKGLEWVSGINYNGGYTSYADSVKGRFTISRDNSKNTLYLQMNSLRAEDTAVYYCARSANWHDTALDYWGQGTLVTVSS VL: DIQMTQSPSSLSASVGDRVTITCRASQSILSYVNWYQQKPGKAPKLVIYAATSRASGVPSRFSGSGSGTDFTLTISSLQPEDFATYYCQQSYDLPLTFGGGTKVEIK
0.164 | 375_E01 (antibody, V domains shown) VH: EVQLLESGGGLVQPGGSLRLSCAASGFTFSSYSMNWVRQAPGKGLEWVSGINYNSGYKSYADSVKGRFTISRDNSKNTLYLQMNSLRAEDTAVYYCARSANWHDTALDYWGQGTLVTVSS VL: DIQMTQSPSSLSASVGDRVTITCRASQSILTYLNWYQQKPGKAPKLVIYAATSRASGVPSRFSGSGSGTDFTLTISSLQPEDFATYYCQQSDDSPLTFGGGTKVEIK
0.242 | 376_B05 (antibody, V domains shown) VH: EVQLLESGGGLVQPGGSLRLSCAASGFTFSSYSMNWVRQAPGKGLEWVANINYNGGYTGYADSVKGRFTISRDNSKNTLYLQMNSLRAEDTAVYYCARSANWHDTALDYWGQGTLVTVSS VL: DIQMTQSPSSLSASVGDRVTITCRASQSIISYVNWYQQKPGKAPKLLIYAATSRASGVPSRFSGSGSGTDFTLTISSLQPEDFATYYCQQSYELPLTFGGGTKVEIK
0.193 | 375_D12 (antibody, V domains shown) VH: EVQLLESGGGLVQPGGSLRLSCAASGFTFDSYGMNWVRQAPGKGLEWVSSINYNSGYTSYADSVKGRFTISRDNSKNTLYLQMNSLRAEDTAVYYCARSANWHDTALDYWGQGTLVTVSS VL: DIQMTQSPSSLSASVGDRVTITCRASQSILTYVNWYQQKPGKAPKLVIYAATSRASGVPSRFSGSGSGTDFTLTISSLQPEDFATYYCQQSYETPLTFGGGTKVEIK
0.245 | 376_A04 (antibody, V domains shown) VH: EVQLLESGGGLVQPGGSLRLSCAASGFTFDSYSMNWVRQAPGKGLEWVSNINYNGGYTSYADSVKGRFTISRDNSKNTLYLQMNSLRAEDTAVYYCARSANWHDTALDYWGQGTLVTVSS VL: DIQMTQSPSSLSASVGDRVTITCRASQSIVTYLNWYQQKPGKAPKLVIYAATSRASGVPSRFSGSGSGTDFTLTISSLQPEDFATYYCQQSYDSPLTFGGGTKVEIK
